One may read the Kd as the equilibrium constant for the complex coming apart. In general, t½ refers to the time in which the quantity being followed falls by half. A word on the koff: it is the first-order rate constant of dissociation. As usually defined, the kon is the second-order rate constant of association.

Residue numbers refer to the chain shown, from its start. Numbers in names are those of the source.

Results on 4 molecules are retold here after patent publication US20150203579A1 (Regeneron, published 2015).

T1: recombinant cynomolgus monkey PD-1 expressed with a C-terminal myc-myc-hexahistidine tag (cynomolgus monkey (Macaca fascicularis))
T1 construct: monomeric; also called MfPD-1-MMH
T1 chain: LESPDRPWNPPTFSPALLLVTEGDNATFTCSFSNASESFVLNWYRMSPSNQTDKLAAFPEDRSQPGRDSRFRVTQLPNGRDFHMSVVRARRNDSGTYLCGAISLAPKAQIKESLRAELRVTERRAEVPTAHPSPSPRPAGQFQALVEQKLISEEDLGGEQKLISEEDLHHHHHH

B1: H4H9019P (antibody, human IgG4, V domains shown)
VH: EVQLVESGGGVVRPGGSLRLSCAASGFTFDDYGMSWVRQVPGKGLEWVSGISWNDGKTVYAESVKGRFIISRDNAKNSLYLEMNSLRAEDTALYYCARDWQYLIERYFDYWGQGTLVTVSS
VL: not shown
notes: Fully human; H4H prefix (human IgG4 Fc)
B2: H4xH9035P (antibody, V domains shown)
VH: B1 VH with G10R, V40L, S49A, Y80H, E105D, Y110F
VL: not shown
notes: Human IgG4 Fc with 2 or more amino acid changes (H4xH); also called H4xH9035P2
B3: H4xH9034P (antibody, V domains shown)
VH: EVQLVESGGGVVRPGGSLRLSCTASGFTFDDYGMSWVRQAPGKGLEWISGIGWTGGRSSYADSVRGRFTISRDNAKNSLYLQMNSLGAEDTALYYCARDRQWLVQWYFDYWGQGTLVTVSS
VL: not shown
notes: Human IgG4 Fc with 2 or more amino acid changes as disclosed in US20100331527 (H4xH); also called H4xH9034P2
B4: H1M7800N (antibody, mouse IgG1, V domains shown)
VH: EVQLVESGGGLVQPGGSLRLSCAASGFTVSNNYMSWVRQAPGKGLEWVSVIYSGGFTYYTDSVKGRFTISRHNSKNTLYLQMNSLRAEDTAVYYCARYYYDTSDYWTFFDYWGQGTLVTVSS
VL: EIVMTQSPATLSVSPGERATLSCRASQSVSSNLAWYQQKPGQAPRLLIYGASTRATGIPARFSGSGSGTEFTLTISSLQSGDFAVYYCQQYNNWPLTFGGGTKVEIN
notes: Human variable regions, mouse IgG1 Fc

For the first assay, the target named is T2, human PD-1 dimer (human PD-1-mFc or human PD-1-hFc) (human, UniProt Q15116 25-170).
T2 construct: also called hPD-1-mFc; hPD1-hFc
T2 sequence (Q15116 25-170 C93S): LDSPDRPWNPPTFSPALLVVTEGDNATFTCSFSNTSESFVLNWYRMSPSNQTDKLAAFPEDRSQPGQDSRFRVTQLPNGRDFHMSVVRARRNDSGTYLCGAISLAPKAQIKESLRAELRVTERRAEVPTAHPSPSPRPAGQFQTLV
The assay can be described thus: SPR, mAb captured, 25C.
As to B1, the affinity, expressed as Kd, was 1.97 nM and the t½ stood at 134 min.

B2 registered a Kd of 0.513 nM, a koff of 0.000103 s⁻¹, a kon of 201000 M⁻¹ s⁻¹ and a t½ of 112 min.

B3 showed an equilibrium dissociation constant (Kd) of 0.701 nM, a koff of 0.000151 s⁻¹, a kon of 215000 M⁻¹ s⁻¹ and a t½ of 77 min.

Turning to B4, the equilibrium dissociation constant (Kd) came to 0.509 nM, the off-rate (koff) was found to be 7.72e-05 s⁻¹, the kon was found to be 152000 M⁻¹ s⁻¹ and the t½ came to 150 min.

The target in another assay is T3, recombinant human PD-1 expressed with a C-terminal myc-myc-hexahistidine tag (human).
T3 construct: monomeric; also called hPD-1-MMH; human PD-1-MMH
In words: SPR, mAb captured, 37C.
Consider B1, for which the Kd stood at 453 nM and the t½ amounted to 2.1 min.

In the case of B2, the Kd was determined as 14.3 nM, the off-rate (koff) is 0.00426 s⁻¹, the kon was determined as 298000 M⁻¹ s⁻¹ and the t½ is 2.7 min.

Consider B3, for which the Kd turned out to be 40.2 nM, the dissociation rate constant (koff) was found to be 0.0112 s⁻¹, the kon came to 279000 M⁻¹ s⁻¹ and the t½ worked out at 1 min.

As for B4, the Kd stood at 510 nM, the koff was determined as 0.0399 s⁻¹, the on-rate constant (kon) was 78300 M⁻¹ s⁻¹ and the t½ stood at 0.3 min.

For a further assay, the target named is T2, human PD-1 dimer (human PD-1-mFc or …). The assay can be described thus: SPR, mAb captured, 37C.
As to B1, binding was put at a Kd of 2.71 nM and the t½ worked out at 59 min.

In the case of B2, the dissociation constant Kd stood at 1.75 nM, the off-rate constant (koff) is 0.000554 s⁻¹, the association rate constant (kon) came to 316000 M⁻¹ s⁻¹ and the t½ was 21 min.

Regarding B3, binding was characterised by a dissociation constant (Kd) of 2.09 nM, the koff is 0.00063 s⁻¹, the on-rate constant (kon) turned out to be 302000 M⁻¹ s⁻¹ and the t½ worked out at 18 min.

With B4, binding was put at a Kd of 0.45 nM, the off-rate (koff) amounted to 0.000181 s⁻¹, the on-rate (kon) came to 400000 M⁻¹ s⁻¹ and the t½ was 64 min.

For another assay, the target named is T1, recombinant cynomolgus monkey PD-1 …. In words: SPR, mAb captured, 25C. Background: SPR reads the build-up and loss of mass on a sensor chip optically.
Consider B1, for which the Kd was found to be 42.9 nM.

Regarding B2, the equilibrium dissociation constant (Kd) is 4.64 nM, the off-rate constant (koff) was 0.000434 s⁻¹, the kon is 93600 M⁻¹ s⁻¹ and the t½ stood at 27 min.

Take B3: the Kd came out at 28 nM, the dissociation rate constant (koff) worked out at 0.00269 s⁻¹, the on-rate (kon) was 96100 M⁻¹ s⁻¹ and the t½ amounted to 4.3 min.

On to B4, for which the equilibrium dissociation constant (Kd) worked out at 176 nM, the koff worked out at 0.0104 s⁻¹, the on-rate constant (kon) is 58900 M⁻¹ s⁻¹ and the t½ was 1.1 min.

The next assay shares this target. The assay can be described thus: SPR, mAb captured, 37C.
B1: the Kd came out at 356 nM and the t½ was found to be 1.5 min.

In the case of B2, the equilibrium dissociation constant (Kd) amounted to 14 nM, the koff was 0.00429 s⁻¹, the on-rate constant (kon) turned out to be 306000 M⁻¹ s⁻¹ and the t½ turned out to be 2.7 min.

Consider B3, for which the Kd came out at 87.3 nM, the koff was 0.0247 s⁻¹, the on-rate constant (kon) worked out at 283000 M⁻¹ s⁻¹ and the t½ stood at 0.5 min.

As for B4, the Kd was found to be 527 nM, the koff was determined as 0.0443 s⁻¹, the association rate constant (kon) worked out at 84000 M⁻¹ s⁻¹ and the t½ worked out at 0.3 min.
